Patent publication US20150045540A1 (published 2015)

T1: Placenta Growth Factor (PlGF), human (human, UniProt P49763 21-149)
T1 chain: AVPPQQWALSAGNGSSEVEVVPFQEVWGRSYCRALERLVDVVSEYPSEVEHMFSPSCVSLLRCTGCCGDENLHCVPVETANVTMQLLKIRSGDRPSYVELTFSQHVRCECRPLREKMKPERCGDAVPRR


Assays:
[1] = biological target: T1, Placenta Growth Factor (PlGF), human; assay: ELISA
[2] = biological target: Hepatocyte Growth Factor (HGF), human (human, UniProt P14210 32-728); assay: ELISA
Hepatocyte Growth Factor (HGF), human, sequence (P14210 32-728): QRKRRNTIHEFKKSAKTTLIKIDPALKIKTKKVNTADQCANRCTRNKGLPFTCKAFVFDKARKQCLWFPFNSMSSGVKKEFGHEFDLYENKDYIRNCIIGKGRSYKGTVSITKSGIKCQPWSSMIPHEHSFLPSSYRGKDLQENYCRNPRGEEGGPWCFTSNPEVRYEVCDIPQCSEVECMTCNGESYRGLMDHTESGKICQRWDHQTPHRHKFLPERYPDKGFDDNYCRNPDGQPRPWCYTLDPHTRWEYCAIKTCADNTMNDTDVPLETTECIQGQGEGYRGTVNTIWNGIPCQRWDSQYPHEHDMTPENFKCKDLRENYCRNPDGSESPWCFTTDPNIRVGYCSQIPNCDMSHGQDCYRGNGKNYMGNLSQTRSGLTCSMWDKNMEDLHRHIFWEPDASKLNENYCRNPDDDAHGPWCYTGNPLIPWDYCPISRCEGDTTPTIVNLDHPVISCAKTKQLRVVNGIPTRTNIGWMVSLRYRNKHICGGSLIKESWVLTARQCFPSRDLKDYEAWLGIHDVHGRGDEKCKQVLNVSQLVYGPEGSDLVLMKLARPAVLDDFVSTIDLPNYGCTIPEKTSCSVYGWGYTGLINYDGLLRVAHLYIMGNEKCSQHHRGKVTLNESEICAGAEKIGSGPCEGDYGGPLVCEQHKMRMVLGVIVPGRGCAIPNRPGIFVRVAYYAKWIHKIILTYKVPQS

Row | EC50 [1] [nM] | EC50 [2] [nM] | Binder
1 | 0.163 | 0.057 | HC 3/SLC 6 (antibody) chain 1: GQGTLVTVSSASTQPVLHQPPAMSSALGTTIRLTCTLRNDHDIGVYSVYWYQQRPGHPPRFLLRYFSQSDKSQGPQVPPRFSGSKDVARNRGYLSISELQPEDEAMYYCAMGARSRCWPRGFQSKHNSVTHVFGSGTQLTVLSQPKATPSVTLFPPSSEELQANKATLVCLMNDFYPGILTVTWKADGTPITQGVEMTTPSKQSNNKYAASSYLSLTPEQWRSRRSYSCQVMHEGSTVEKTVAPAECS chain 2: MSWAPVLLMLFVYCTGCGPQPVLHQPPAMSSALGTTIRLTCTLRNDHDIGVYSVYWYQQRPGHPPRFLLRYFSQSDKSQGPQVPPRFSGSKDVARNRGYLSISVTHVFGSGTQLTVLSQPKATQVQLVQ
2 | 0.208 | 0.063 | HC 4/SLC 6 (antibody) chain 1: GQGTLVTVSSASTKQPVLHQPPAMSSALGTTIRLTCTLRNDHDIGVYSVYWYQQRPGHPPRFLLRYFSQSDKSQGPQVPPRFSGSKDVARNRGYLSISELQPEDEAMYYCAMGARSRCWPRGFQSKHNSVTHVFGSGTQLTVLSQPKATPSVTLFPPSSEELQANKATLVCLMNDFYPGILTVTWKADGTPITQGVEMTTPSKQSNNKYAASSYLSLTPEQWRSRRSYSCQVMHEGSTVEKTVAPAECS chain 2: MSWAPVLLMLFVYCTGCGPQPVLHQPPAMSSALGTTIRLTCTLRNDHDIGVYSVYWYQQRPGHPPRFLLRYFSQSDKSQGPQVPPRFSGSKDVARNRGYLSISVTHVFGSGTQLTVLSQPKATQVQLVQ
3 | 0.13 | 0.049 | HC 3/SLC 9 (antibody) chain 1: GQGTLVTVSSASTQPVLHQPPAMSSALGTTIRLTCTLRNDHDIGVYSVYWYQQRPGHPPRFLLRYFSQSDKSQGPQVPPRFSGSKDVARNRGYLSISELQPEDEAMYYCAMGARSRCWPRGFQSKHNSVTHVFGSGTQLTVLSQPKATPSVTLFPPSSEELQANKATLVCLMNDFYPGILTVTWKADGTPITQGVEMTTPSKQSNNKYAASSYLSLTPEQWRSRRSYSCQVMHEGSTVEKTVAPAECS chain 2: MSWAPVLLMLFVYCTGCGPQPVLHQPPAMSSALGTTIRLTCTLRNDHDIGVYSVYWYQQRPGHPPRFLLRYFSQSDKSQGPQVPPRFSGSKDVARNRGYLSISVTHVFGSGTQLTVLSQPKATPSVQVQLVQ
4 | 0.289 | 0.063 | HC 8/SLC 5 (antibody) chain 1: GQGTLVTVSSASTKGPSVQPVLHQPPAMSSALGTTIRLTCTLRNDHDIGVYSVYWYQQRPGHPPRFLLRYFSQSDKSQGPQVPPRFSGSKDVARNRGYLSISELQPEDEAMYYCAMGARSRCWPRGFQSKHNSVTHVFGSGTQLTVLSQPKATPSVTLFPPSSEELQANKATLVCLMNDFYPGILTVTWKADGTPITQGVEMTTPSKQSNNKYAASSYLSLTPEQWRSRRSYSCQVMHEGSTVEKTVAPAECS chain 2: MSWAPVLLMLFVYCTGCGPQPVLHQPPAMSSALGTTIRLTCTLRNDHDIGVYSVYWYQQRPGHPPRFLLRYFSQSDKSQGPQVPPRFSGSKDVARNRGYLSISVTHVFGSGTQLTVLSQPKAQVQLVQ
5 | 0.045 | 0.049 | HC 8/SLC 9 (antibody) chain 1: GQGTLVTVSSASTKGPSVQPVLHQPPAMSSALGTTIRLTCTLRNDHDIGVYSVYWYQQRPGHPPRFLLRYFSQSDKSQGPQVPPRFSGSKDVARNRGYLSISELQPEDEAMYYCAMGARSRCWPRGFQSKHNSVTHVFGSGTQLTVLSQPKATPSVTLFPPSSEELQANKATLVCLMNDFYPGILTVTWKADGTPITQGVEMTTPSKQSNNKYAASSYLSLTPEQWRSRRSYSCQVMHEGSTVEKTVAPAECS chain 2: MSWAPVLLMLFVYCTGCGPQPVLHQPPAMSSALGTTIRLTCTLRNDHDIGVYSVYWYQQRPGHPPRFLLRYFSQSDKSQGPQVPPRFSGSKDVARNRGYLSISVTHVFGSGTQLTVLSQPKATPSVQVQLVQ
6 | 0.227 | 0.059 | HC 8/SLC 2 (antibody) chain 1: GQGTLVTVSSASTKGPSVQPVLHQPPAMSSALGTTIRLTCTLRNDHDIGVYSVYWYQQRPGHPPRFLLRYFSQSDKSQGPQVPPRFSGSKDVARNRGYLSISELQPEDEAMYYCAMGARSRCWPRGFQSKHNSVTHVFGSGTQLTVLSQPKATPSVTLFPPSSEELQANKATLVCLMNDFYPGILTVTWKADGTPITQGVEMTTPSKQSNNKYAASSYLSLTPEQWRSRRSYSCQVMHEGSTVEKTVAPAECS chain 2: MSWAPVLLMLFVYCTGCGPQPVLHQPPAMSSALGTTIRLTCTLRNDHDIGVYSVYWYQQRPGHPPRFLLRYFSQSDKSQGPQVPPRFSGSKDVARNRGYLSISVTHVFGSGTQLTVLSQQVQLVQ
7 | 0.069 | 0.056 | HC 8/SLC 8 (antibody) chain 1: GQGTLVTVSSASTKGPSVQPVLHQPPAMSSALGTTIRLTCTLRNDHDIGVYSVYWYQQRPGHPPRFLLRYFSQSDKSQGPQVPPRFSGSKDVARNRGYLSISELQPEDEAMYYCAMGARSRCWPRGFQSKHNSVTHVFGSGTQLTVLSQPKATPSVTLFPPSSEELQANKATLVCLMNDFYPGILTVTWKADGTPITQGVEMTTPSKQSNNKYAASSYLSLTPEQWRSRRSYSCQVMHEGSTVEKTVAPAECS chain 2: MSWAPVLLMLFVYCTGCGPQPVLHQPPAMSSALGTTIRLTCTLRNDHDIGVYSVYWYQQRPGHPPRFLLRYFSQSDKSQGPQVPPRFSGSKDVARNRGYLSISVTHVFGSGTQLTVLSQPKATPSQVQLVQ
8 | 0.251 | 0.066 | HC 6/SLC 5 (antibody) chain 1: GQGTLVTVSSASTKGPQPVLHQPPAMSSALGTTIRLTCTLRNDHDIGVYSVYWYQQRPGHPPRFLLRYFSQSDKSQGPQVPPRFSGSKDVARNRGYLSISELQPEDEAMYYCAMGARSRCWPRGFQSKHNSVTHVFGSGTQLTVLSQPKATPSVTLFPPSSEELQANKATLVCLMNDFYPGILTVTWKADGTPITQGVEMTTPSKQSNNKYAASSYLSLTPEQWRSRRSYSCQVMHEGSTVEKTVAPAECS chain 2: MSWAPVLLMLFVYCTGCGPQPVLHQPPAMSSALGTTIRLTCTLRNDHDIGVYSVYWYQQRPGHPPRFLLRYFSQSDKSQGPQVPPRFSGSKDVARNRGYLSISVTHVFGSGTQLTVLSQPKAQVQLVQ
9 | 0.063 | 0.059 | HC 9/SLC 7 (antibody) chain 1: GQGTLVTVSSASTKGPSVFQPVLHQPPAMSSALGTTIRLTCTLRNDHDIGVYSVYWYQQRPGHPPRFLLRYFSQSDKSQGPQVPPRFSGSKDVARNRGYLSISELQPEDEAMYYCAMGARSRCWPRGFQSKHNSVTHVFGSGTQLTVLSQPKATPSVTLFPPSSEELQANKATLVCLMNDFYPGILTVTWKADGTPITQGVEMTTPSKQSNNKYAASSYLSLTPEQWRSRRSYSCQVMHEGSTVEKTVAPAECS chain 2: MSWAPVLLMLFVYCTGCGPQPVLHQPPAMSSALGTTIRLTCTLRNDHDIGVYSVYWYQQRPGHPPRFLLRYFSQSDKSQGPQVPPRFSGSKDVARNRGYLSISVTHVFGSGTQLTVLSQPKATPQVQLVQ
10 | 0.063 | 0.061 | HC 9/SLC 8 (antibody) chain 1: GQGTLVTVSSASTKGPSVFQPVLHQPPAMSSALGTTIRLTCTLRNDHDIGVYSVYWYQQRPGHPPRFLLRYFSQSDKSQGPQVPPRFSGSKDVARNRGYLSISELQPEDEAMYYCAMGARSRCWPRGFQSKHNSVTHVFGSGTQLTVLSQPKATPSVTLFPPSSEELQANKATLVCLMNDFYPGILTVTWKADGTPITQGVEMTTPSKQSNNKYAASSYLSLTPEQWRSRRSYSCQVMHEGSTVEKTVAPAECS chain 2: MSWAPVLLMLFVYCTGCGPQPVLHQPPAMSSALGTTIRLTCTLRNDHDIGVYSVYWYQQRPGHPPRFLLRYFSQSDKSQGPQVPPRFSGSKDVARNRGYLSISVTHVFGSGTQLTVLSQPKATPSQVQLVQ
